# Source: patent US20220105157A1, “Compositions and Methods for Promoting Angiogenesis in the Eye” (The Regents of the University of California, priority 2019, published 2022)
# Assays:
# [1] = tested on: choroid capillaries of NaIO3-treated mice; assay: Sodium iodate (NaIO3) model, choroid capillary recovery; format: in vivo, mouse; conditions: NaIO3 20 mg/kg i.v.; intravitreal LIF 50 ng, CT-1 different doses, OSM 10 ng; OCT-A
# Procedure: Eight-week-old C57BL/6J mice were anesthetized with ketamine/xylazine cocktail. Sterilized NaIO3 was administered as a single intravenous injection (20 mg/kg body weight) (28) (29). Control mice were injected with PBS. PBS, LIF (50 ng), CT-1 (different doses) or OSM (10 ng) was injected intravitreally in five-mice groups. Five, seven and nine days after injection, choroid capillaries were monitored by OCT-A system. 9 days after injection, mice were killed and eyes were harvested for H&E and immunofluorescent staining. Avascular area in choroid capillaries was analyzed using ImageJ.
# [2] = tested on: retinal vasculature of mouse eyes; assay: Intravitreal injection of recombinant proteins in mouse eyes, retinal vessel density; format: in vivo; conditions: mice, intravitreal
# Procedure: Male C57BL/6J mice (6-8 week and P5) were anesthetized with ketamine/Xylazine cocktail. The indicated amounts of recombinant LIF (Sigma, CAT #SRP9001) in 1 μl of PBS and PBS vehicle control were injected intravitreally with a 33-gauge Hamilton syringe. Seven (for adult mice) or 3 (for neonatal mice) days after injection, animals were euthanized, eyes were then enucleated and fixed in 4% paraformaldehyde (PFA) for 15 min. Choroid-sclera complexes and retinas were separated and anti-CD31 immunofluorescence (IF) or lectin labeling was performed to evidence the vasculature by whole mount staining of both retina and choroidal tissues or flat-mounts of retina. For CD31 IF, rat anti-mouse antibody (BD Biosciences, CAT #550274) was diluted 1:100 and incubated overnight at 4° C. After 4-hour incubation with the Alexa Fluor-488-conjugated anti-rat antibody (Life Technologies, CAT #A11006), whole mounts were imaged via the 488 nm channel using Keyence Microscope BZ-X710 (Keyence Corporation, Osaka, Japan) or A1R Confocal STORM super-resolution system (Nikon). For lectin staining, Dylight-488-labeled lectin (Vector Laboratories, CAT #DL-1174) was diluted at 1:200 and images were obtained using A1R Confocal STORM super-resolution system (Nikon). For Quantification of vascular density in choroids and retina was carried out by Image J. Student's t test was used for statistical analysis. […]
# Optical coherence tomography angiography (OCTA) imaging of the retina of adult mice was performed 7 days after LIF injection, using a 1300 nm optical coherence tomography (OCT) system developed by Dr. R. K. Wang's group at University of Washington Seattle, in agreement with previously described methodology (66). […] To quantify the retinal vascular density, retinal and choroidal layers in 3D structure OCT scans were separated by the hyper-reflecting retinal pigment epithelium (RPE). […] The vessel density was then determined by calculating the percentages of vessel-covered area in total area of view using the ImageJ software.
# [3] = tested on: bovine choroidal endothelial (BCE) cells; assay: BCE endothelial cell proliferation assay (alamar blue); format: cell-based; parameters: key to BCE cell growth normalized to the vehicle control group: ns, not statistically significant; conditions: for BCE cell growth normalized to the vehicle control group: day 6, n = 3
# Procedure: The bovine endothelial proliferation assays were performed essentially as previously described (63, 64). BCE (1×10^3 cells/well) or BRE (5×10^2 cells/well) cells were seeded in 96-well plates in the culture medium (DMEM-low glucose supplemented with 10% BCS, 2 mM glutamine and antibiotics) plus testing materials with a total volume of 200 μl per well. BAE cells were plated in 96-well plates at a density of 2×10^3 cells in the culture medium (DMEM-low glucose supplemented with 1% BCS and antibiotics) plus testing material with a total volume of 200 μl per well. HRME cells were seeded at a density of 1×10^3 cells/well in gelatin-coated 96-well plates in assay medium (DMEM-low glucose supplemented with 20% FBS and antibiotics) plus testing materials to make a total volume 200 μl per well. For assays involving antibodies or small-molecule inhibitors, inhibitors or vehicle controls were first added and then test materials were added one hour later. After 6 days (unless otherwise specified), cells were incubated with alamar blue for 4 h. Fluorescence was measured at 530 nm excitation wavelength and 590 nm emission wavelength. Each experiment was carried out in duplicate/triplicate and repeated at least three times.
Molecule,avascular areas in choroid compared to PBS group [1],vascular density in the retina [2],stimulation of BCE cell growth (mitogenic activity) [3],BCE cell growth normalized to the vehicle control group ([3]; 3 ng/ml),BCE cell growth normalized to the vehicle control group ([3]; 10 ng/ml),BCE cell growth normalized to the vehicle control group ([3]; 30 ng/ml),BCE cell growth normalized to the vehicle control group ([3]; 100 ng/ml),BCE cell growth normalized to the vehicle control group ([3]; 300 ng/ml),BCE cell growth normalized to the vehicle control group ([3]; 1000 ng/ml),increase in retinal density ([2]; 20 ng),increase in retinal density ([2]; 100 ng)
"OSM: oncostatin M, IL-6 family member (protein, UniProt P13725 26-221, looked up) Oncostatin-M: AAIGSCSKEYRVLLGQLQKQTDLMQDTSRLLDPYIRIQGLDVPKLREHCRERPGAFPSEETLRGLGRRGFLQTLNATLGCVLHRLADLEQRLPKAQDLERSGLNIEDLEKLQMARPNILGLRNNIYCMAQLLDNSDTAEPTKAGRGASQPPTPTPASDAFQRKLEGCRFLHGYHRFMHSVGRVFSKWGESPNRSRR",larger than in the PBS group,vascular density decreased,–,–,–,–,–,–,–,–,–
"PRDX-1: recombinant human Peroxiredoxin 1 (protein, UniProt Q06830 2-199, looked up) Peroxiredoxin-1: SSGNAKIGHPAPNFKATAVMPDGQFKDISLSDYKGKYVVFFFYPLDFTFVCPTEIIAFSDRAEEFKKLNCQVIGASVDSHFCHLAWVNTPKKQGGLGPMNIPLVSDPKRTIAQDYGVLKADEGISFRGLFIIDDKGILRQITVNDLPVGRSVDETLRLVQAFQFTDKHGEVCPAGWKPGSDTIKPDVQKSKEYFSKQK",–,–,had no effect,ns,ns,ns,ns,ns,ns,–,–
"CT-1: cardiotrophin-1, IL-6 family member (protein, UniProt Q16619 1-201, looked up) Cardiotrophin-1: MSRREGSLEDPQTDSSVSLLPHLEAKIRQTHSLAHLLTKYAEQLLQEYVQLQGDPFGLPSFSPPRLPVAGLSAPAPSHAGLPVHERLRLDAAALAALPPLLDAVCRRQAELNPRAPRLLRRLEDAARQARALGAAVEALLAALGAANRGPRAEPPAATASAASATGVFPAKVLGLRVCGLYREWLSRTEGDLGQLLPGGSA",reduced avascular areas,–,–,–,–,–,–,–,–,approximately 30%,~50%
